According to patent US10947270B2, “Targeted prodrug cytosine deaminase fusion carrier and application thereof” (National Yang-Ming University, priority 2015, dated 2021):

Key:
[1] = Enzyme kinetic analysis of EcCD series fusion proteins, substrate 5-FC; type: biochemical
Text: FIGS. 11A-11D show the activity and kinetics analysis of EcCD series fusion protein enzymes, and the EcCD series proteins are combined with 5-FC at different concentrations for reaction. Respectively calculate the 5-FU formation reaction rate shown in FIG. 11A, 5-FC consumption reaction rate shown in FIG. 10B, uracil formation reaction rate shown in FIG. 10C and cytosine consumption reaction rate shown in FIG. 10D, substitute Michaelis-Menten formula, and calculate the base mass (Kcat) and Km value catalyzed by each mol enzyme in unit time.

[2] = Enzyme kinetic analysis of yCD series proteins after DTPA modification, marking and purification; type: biochemical
Text: The enzyme activity of yCD is not affected by DTPA modification.
FIGS. 24A-24B show the kinetic curve of yCD series protein modified, labeled and purified by DTPA. The enzyme activity of the two proteins is not affected by the labeling conditions. After adding EDTA with a 10-fold molar excess of protein, and it is competitively purified, In-DTPA-yCD compared with the original enzyme activity.
The curve and enzyme kinetic parameters (see FIG. 18 and Table 13) are fitted by the […] protein enzyme kinetics through the Michaelis-Menten formula in the Graph prism program.
Before the protein is labeled by radioisotope, its enzyme function must be determined, and based on the original enzyme function, it should be examined whether it will be affected during the radioactive marking process. The curve and enzyme kinetic parameters of protein are fitted by the Michaelis-Menten formula in the Graph prism program. […] Whether the yCD and RGD4C-yCD protein detected by the same method will be affected under the conditions of DTPA modification, marking and purification. […] After the completion of the radioactive metal mark, it is necessary to add EDTA of 10-fold protein Moire number and react at room temperature for 1 hour to compete for the radioactive metal isotope indium which is not chelated on DTPA. The EDTA in this step also has the chance to chelate the metal zinc ion of the enzyme catalytic center, the enzyme activity is impaired, so it is necessary to analyze the enzyme activity of In-DTPA-yCD and In-RGD4C-yCD protein after competition with EDTA. After the EDTA competitive reaction is completed, the enzyme kinetics analysis can be carried out by reducing the EDTA molecule weight through membrane centrifugation method and by replacing the solution with pH 7.0. […] The curve and receptor binding ability parameters of the protein and integrin αvβ3 are fitted under the conditions of DTPA modification, marking and purification by the One site-Specific binding formula in the Graph prism program (see FIG. 25 and Table 18). […] Although the two proteins after marking are greatly affected by the enzyme activity, they still have good binding ability to the integrin αvβ3 receptor. In consideration of the indispensability of EDTA for radiochemical purity, it retains a considerable amount of enzyme activity. In addition, the effect of integrin αvβ3 receptor binding ability is minimal, in combination of cell uptake, biodistribution and angiography experiment, focusing on the evaluation of target results, and the subsequent biological experiment is still carried out by the marking and purification conditions.

HUVEC and U87MG cells = assay: Fluorescence microscopy of binding and distribution of yCD series fusion proteins; type: cell-based, human; settings: 500 nM protein, 4° C., 2 hours
Description: (FIG. 8A) or 37° C. […] (FIG. 8C) or 37° C. (FIG. 8D) for 2 hours, and then the fluorescent staining is performed for the cells, and the confocal fluorescence microscope is used to observe the distribution of protein in cells. (Green signal: β3 integrin; red signal: anti-His6-tag (also represents the signal of the fusion protein); blue signal: Hoechst 33342 cell nuclear stain) (Calibration scale: 20 μm).
HUVEC and U87MG cells are co-cultured with culture medium containing 500 nM RGD4C-yCD and RGD4C-yCD/UPRT protein at 4° C. and 37° C. for 2 hours, then the cells are stained with fluorescence, and the distribution in the cell is observed by conjugated fluorescence microscopy.

integrin αvβ3 receptor = integrin αvβ3 receptor (Homo sapiens, UniProt P05106+P06756); assay: ELISA binding assay of yCD series recombinant protein to integrin αvβ3 receptor; settings: ELISA
Sequence of integrin αvβ3 receptor (P06756 31-889 limits assumed): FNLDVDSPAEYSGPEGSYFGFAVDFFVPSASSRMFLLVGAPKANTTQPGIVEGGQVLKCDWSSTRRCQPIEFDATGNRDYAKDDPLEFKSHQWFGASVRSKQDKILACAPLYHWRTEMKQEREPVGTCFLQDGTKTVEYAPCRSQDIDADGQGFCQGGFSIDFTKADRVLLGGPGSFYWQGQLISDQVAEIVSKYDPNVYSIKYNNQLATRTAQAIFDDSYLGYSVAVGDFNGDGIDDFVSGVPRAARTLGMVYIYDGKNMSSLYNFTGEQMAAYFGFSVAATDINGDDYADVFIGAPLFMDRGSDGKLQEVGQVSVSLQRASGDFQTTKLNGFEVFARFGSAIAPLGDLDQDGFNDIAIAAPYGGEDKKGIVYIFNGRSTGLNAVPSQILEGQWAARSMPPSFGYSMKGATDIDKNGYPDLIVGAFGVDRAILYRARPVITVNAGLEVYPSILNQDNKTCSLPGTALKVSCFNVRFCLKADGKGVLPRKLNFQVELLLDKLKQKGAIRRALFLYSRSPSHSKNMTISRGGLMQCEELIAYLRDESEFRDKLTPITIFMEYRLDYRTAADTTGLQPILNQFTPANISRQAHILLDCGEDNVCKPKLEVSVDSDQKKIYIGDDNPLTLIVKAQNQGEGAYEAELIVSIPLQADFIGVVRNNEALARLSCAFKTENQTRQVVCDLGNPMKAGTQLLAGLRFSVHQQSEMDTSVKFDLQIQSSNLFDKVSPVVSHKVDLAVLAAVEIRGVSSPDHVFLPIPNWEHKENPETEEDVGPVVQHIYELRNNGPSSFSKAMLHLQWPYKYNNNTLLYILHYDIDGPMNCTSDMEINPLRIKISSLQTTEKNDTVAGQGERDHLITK
Sequence of integrin αvβ3 receptor (P06756 891-1048 partner limits assumed): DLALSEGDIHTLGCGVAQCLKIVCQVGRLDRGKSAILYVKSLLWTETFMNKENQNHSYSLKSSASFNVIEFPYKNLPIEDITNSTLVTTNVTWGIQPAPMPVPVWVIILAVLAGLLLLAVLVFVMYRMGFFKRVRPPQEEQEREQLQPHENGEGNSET
Sequence of integrin αvβ3 receptor (P05106 27-788): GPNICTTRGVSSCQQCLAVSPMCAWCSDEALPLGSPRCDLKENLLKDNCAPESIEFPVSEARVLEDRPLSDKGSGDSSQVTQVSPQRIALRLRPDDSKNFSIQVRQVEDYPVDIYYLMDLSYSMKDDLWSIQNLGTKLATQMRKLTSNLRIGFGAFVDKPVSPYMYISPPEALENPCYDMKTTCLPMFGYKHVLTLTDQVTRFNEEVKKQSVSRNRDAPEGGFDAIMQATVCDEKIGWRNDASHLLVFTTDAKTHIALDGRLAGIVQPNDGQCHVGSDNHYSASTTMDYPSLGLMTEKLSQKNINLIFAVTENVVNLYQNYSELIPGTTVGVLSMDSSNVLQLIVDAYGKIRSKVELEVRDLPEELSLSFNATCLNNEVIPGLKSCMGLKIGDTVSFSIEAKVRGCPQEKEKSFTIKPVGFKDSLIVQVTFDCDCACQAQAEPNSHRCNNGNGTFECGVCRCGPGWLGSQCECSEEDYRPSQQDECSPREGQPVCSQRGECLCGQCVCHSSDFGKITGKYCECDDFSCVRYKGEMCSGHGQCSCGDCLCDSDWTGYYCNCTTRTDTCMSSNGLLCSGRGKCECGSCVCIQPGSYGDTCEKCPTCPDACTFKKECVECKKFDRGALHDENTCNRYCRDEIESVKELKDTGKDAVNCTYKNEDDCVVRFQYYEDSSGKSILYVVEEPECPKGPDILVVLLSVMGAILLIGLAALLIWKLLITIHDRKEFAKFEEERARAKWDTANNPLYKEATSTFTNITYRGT
Description: FIGS. 3A-3B show the binding affinity and specificity of RGD4C-yCD, yCD, RGD4C-yCD/UPRT and yCD/UPRT proteins to integrin αvβ3. The binding affinities of RGD4C-yCD, yCD, RGD4C-yCD/UPRT and yCD/UPRT proteins to integrin αvβ3 were determined by ELISA assay using horseradish peroxidase (HRP)-tagged anti-His6 antibody (FIG. 3A). The dissociation constant Kd is obtained by prism software with curve fitting method. […] (*compared with untreated RGDfv group, P<0.05)
The specific binding ability of RGD4C-yCD, yCD, RGD4C-yCD/UPRT and yCD/UPRT recombinant protein to integrin αvβ3 receptor is analyzed by ELISA binding assay, plotted with prism software and made with curve fitting to find the dissociation constant Kd value.

[3] = Enzyme activity and kinetic analysis of yCD series recombinant proteins (5-FC converted into 5-FU); type: biochemical; settings: 50 nM protein
Description: FIGS. 2A-2B show the enzyme activities of RGD4C-yCD, yCD, RGD4C-yCD/UPRT and yCD/UPRT proteins to convert 5-FC to 5-FU. 50 nM of RGD4C-yCD, yCD, RGD4C-yCD/UPRT or yCD/UPRT protein reacted with increasing concentrations of 5-FC in phosphate buffered saline solutions. […] The measured data was used to plot the enzyme kinetic curve that takes the substrate concentration [S] as the x-axis and takes the initial reaction rate V0 as the y-axis,
The enzyme activity of 5-FC converted into 5-FU by RGD4C-yCD, yCD, RGD4C-yCD/UPRT and yCD/UPRT is performed. The recombinant protein concentration (50 nM) added with 5-FC at different concentrations. The 5-FC consumption and the generated amount of 5-FU is calculated. The measured data is taken as the x-axis by the substrate concentration [S]; the initial reaction rate V0 is the kinetic curve by making a diagramthe with y-axis (see FIG. 2A and FIG. 2B); the non-linear regression is made by the prism software according to the Michaelis-Menten equation; calculate the enzyme kinetic parameter Km and Vmax. […] It is speculated that the yCD function in each fusion protein is similar, but yUPRT may affect the effects of yCD and 5-FC.

binding to integrin αvβ3 (integrin αvβ3 receptor): cannot be bound
B1: yCD: yeast cytosine deaminase (yCD) (SEQ ID NO: 1), recombinant protein without target molecule (protein)
chain: MVVTGGMASKWDQKGMDIAYEEAALGYKEGGVPIGGCLINNKDGSVLGRGHNMRFQKGSATLHGEISTLENCGRLEGKVYKDTTLYTTLSPCDMCTGAIIMYGIPRCVVGENVNFKSKGEKYLQTRGHEVVVVDDERCKKIMKQFIDERPQDWFEDIGELEHHHHHH
modifications: yCD
Kcat ([1]; 5-FC consumption (Table 5)): 48.5 ± 1.3 s⁻¹
Km ([1]; 5-FC consumption (Table 5)): 1000 ± 100 µM
Kcat ([1]; 5-FU generation): 47.2 ± 0.9 s⁻¹
Km ([1]; 5-FU generation): 1000 ± 100 µM
Km [2]: 840 ± 71.9 µM
Vmax [2]: 264.1 ± 8.256 µM/min
binding and distribution in cells (HUVEC and U87MG cells): can not be effectively bound
Km ([3]; calculated by 5-FC consumption): 700 ± 100 µM
Vmax ([3]; calculated by 5-FC consumption): 175.8 ± 4.7 µM/min
Km ([3]; calculated by 5-FU formation): 1000 ± 100 µM
Vmax ([3]; calculated by 5-FU formation): 164.2 ± 4.7 µM/min
